From patent US20200087416A1 (Innovent, published 2020) come the findings set out here.

The term Kd denotes the free concentration of one partner at which half of the binding sites on the other are occupied at equilibrium, for simple one-to-one binding. Higher therefore signals lower affinity.

B1: ADI-10085 (antibody, human IgG2, kappa, V domains shown)
VH: QLQLQESGPGLVKPSETLSLTCTVSGGSIVSSSYYWAWIRQPPGKGLEWIGSINYKGSTYYNPSLKSRVTISVDTSKNQFSLKLSSVTAADTAVYYCARENSGVVPAAGPNWFGPWGQGTLVTVSS
VL: EIVLTQSPATLSLSPGERATLSCRASQSVSSYLAWYQQKPGQAPRLLIYDASNRATGIPARFSGSGSGTDFTLTISSLEPEDFAVYYCQQRRNWFTFGGGTKVEIKR
notes: IgG
B2: ADI-10089 (antibody, human IgG2, kappa, V domains shown)
VH: B1 VH with V30G, A37T, K56R, G114D
VL: B1 VL
notes: IgG
B3: ADI-10087 (antibody, human IgG2, kappa, V domains shown)
VH: B1 VH with V30S, S32A, A37S, K56R
VL: B1 VL
notes: also called anti-PCSK antibody of the invention
B4: ADI-10088 (antibody, human IgG2, kappa, V domains shown)
VH: B1 VH with V30G, K56R, G114D
VL: B1 VL
notes: IgG
B5: ADI-10085 Fab (Fab, V domains shown)
VH: B1 VH
VL: B1 VL
B6: ADI-09113 Fab (Fab, V domains shown)
VH: B1 VH with I29V, V30S, A37G, I53A, N54Y, K56S, G114D
VL: B1 VL
B7: ADI-09111 Fab (Fab, V domains shown)
VH: B1 VH with V30S, A37G, N54Y, K56S, G114D
VL: B1 VL
B8: ADI-10090 Fab (Fab, V domains shown)
VH: B1 VH with V30W, A37T, K56R, G114D
VL: B1 VL
B9: ADI-10086 Fab (Fab, V domains shown)
VH: B1 VH with V30R, S33A, A37G, K56R
VL: B1 VL
B10: ADI-10087 Fab (Fab, V domains shown)
VH: B1 VH with V30S, S32A, A37S, K56R
VL: B1 VL
B11: ADI-10089 Fab (Fab, V domains shown)
VH: B1 VH with V30G, A37T, K56R, G114D
VL: B1 VL

Changes are numbered by the printed parent chain.

The first assay has as its target T1, human PCSK9 (PCSK9 antigen, SEQ ID NO. 53) (human, UniProt A8T644 31-152; Q8NBP7 153-692, Biotin-labelled on amines in the MSD-SET and sorting experiments; positions not given.).
T1 construct: Biotin-labelled in MSD-SET; also called PCSK9-WT; PCSK9 protein
Nature of the assay: flow cytometry, PCSK9 left on CHO-LDLR cells (anti-His-FITC) after premix with 1000 nM antibody. On the technique in general: A flow cytometer gives signals particle by particle.
With B1, the “Fluorescence Signal Value” was determined as 5700.
As for B2, the “Fluorescence Signal Value” was 5330.
On the same count and under the same terms, then B3, with 5090; and B4, with 5220.

The next assay deals with T1, human PCSK9 (PCSK9 antigen, SEQ ID NO. …). Nature of the assay: flow cytometry, PCSK9 left on CHO-LDLR cells (anti-His-FITC) after premix with 0.1 nM antibody.
As to B1, the “Fluorescence Signal Value” was 10400.
Still for that read-out and setting: under B2 stands 6890; under B3, 6860.
Take B4: the “Fluorescence Signal Value” turned out to be 6800.

Another assay shares this target. Description: flow cytometry, PCSK9 left on CHO-LDLR cells (anti-His-FITC) after premix with 10 nM antibody.
B1: the “Fluorescence Signal Value” is 5680.
Still for that read-out and setting: then B2, with 5640.
The same measure, in the same setting: under B3 stands 5740; under B4, 5830.

The target is the same in a further assay. Nature of the assay: ForteBio method and MSD-SET assay, as the sentence says; end tied to ADI-10085 by Table 2.
For B5, the Kd amounted to 0.004 nM.

For another assay the target is unchanged. Nature of the assay: flow cytometry, PCSK9 left on CHO-LDLR cells (anti-His-FITC) after premix with 1 nM antibody.
For B1, the “Fluorescence Signal Value” worked out at 8910.
Same read-out and setting: then B2, with 6500.
On the same count and under the same terms, then B3, with 6480.
With B4, the “Fluorescence Signal Value” turned out to be 6830.

The next assay has as its target T2, murine PCSK-9 (murine, UniProt Q80W65 35-694).
T2 construct: also called mouse PCSK9
Description: MSD-SET, Fab with biotin-PCSK9 in solution, IgG on plate, pH 7.4.
With B5, the Kd was 0.041 nM.
B6 gave a Kd of 0.76 nM.
Take B7: binding was put at a Kd of 3.5 nM.
B8 displayed a Kd of 0.12 nM.
Regarding B9, the Kd amounted to 0.06 nM.
On the same count and under the same terms, then B10, with 0.041 nM.
B11: the Kd is 0.07 nM.

The target in a further assay is T1, human PCSK9 (PCSK9 antigen, SEQ ID NO. …). The description is as above.
Take B5: the Kd was 0.0042 nM.
B6 gave a Kd of 0.17 nM.
On the same count and under the same terms, then B7, with 0.7 nM.
The same measure, in the same setting: under B8 stands 0.017 nM.
On the same count and under the same terms, then B9, with 0.0086 nM; and B10, with 0.005 nM.
Regarding B11, the Kd came to 0.011 nM.

Another assay shares this target. Description: flow cytometry, PCSK9 left on CHO-LDLR cells (anti-His-FITC) after premix with 100 nM antibody.
Turning to B1, the “Fluorescence Signal Value” was found to be 5090.
Consider B2, for which the “Fluorescence Signal Value” was determined as 5140.
Still for that read-out and setting: then B3, with 5260; and B4, with 5160.

For the next assay the target is unchanged. Nature of the assay: cell-based or functional assay.
As to B1, the “BODIPY-LDL uptake by HepG2 cells, fluorescence, 4.2 nM, replicate 1” value (“BODIPY-LDL uptake … 4.2 nM, replicate 1” below) came out at 0.423; the “BODIPY-LDL uptake by HepG2 cells, fluorescence, 4.2 nM, replicate 2” value (from here on “BODIPY-LDL uptake … 4.2 nM, replicate 2”) worked out at 0.435; the “BODIPY-LDL uptake by HepG2 cells, fluorescence, 16.8 nM, replicate 1” value (shortened to “BODIPY-LDL uptake … 16.8 nM, replicate 1”) was 0.78; the “BODIPY-LDL uptake by HepG2 cells, fluorescence, 16.8 nM, replicate 2” value (“BODIPY-LDL uptake … 16.8 nM, replicate 2” for short) came out at 0.742. The “BODIPY-LDL uptake by HepG2 cells, fluorescence, 66.7 nM, replicate 1” value (“BODIPY-LDL uptake … 66.7 nM, replicate 1” below) is 0.749 and the “BODIPY-LDL uptake by HepG2 cells, fluorescence, 66.7 nM, replicate 2” value (shortened to “BODIPY-LDL uptake … 66.7 nM, replicate 2”) amounted to 0.797.
Consider B2, for which the “BODIPY-LDL uptake … 4.2 nM, replicate 1” value amounted to 0.38; the “BODIPY-LDL uptake … 4.2 nM, replicate 2” value worked out at 0.399; the “BODIPY-LDL uptake … 16.8 nM, replicate 1” value was determined as 0.712; the “BODIPY-LDL uptake … 16.8 nM, replicate 2” value is 0.706. The “BODIPY-LDL uptake … 66.7 nM, replicate 1” value stood at 0.774 and the “BODIPY-LDL uptake … 66.7 nM, replicate 2” value was found to be 0.741.
Take B3: the “BODIPY-LDL uptake … 4.2 nM, replicate 1” value was determined as 0.37; the “BODIPY-LDL uptake … 4.2 nM, replicate 2” value was 0.403; the “BODIPY-LDL uptake … 16.8 nM, replicate 1” value worked out at 0.72; the “BODIPY-LDL uptake … 16.8 nM, replicate 2” value stood at 0.683. For the same molecule, the “BODIPY-LDL uptake … 66.7 nM, replicate 1” value came out at 0.758 and the “BODIPY-LDL uptake … 66.7 nM, replicate 2” value is 0.775.
B4: the “BODIPY-LDL uptake … 4.2 nM, replicate 1” value was found to be 0.357; the “BODIPY-LDL uptake … 4.2 nM, replicate 2” value stood at 0.401; the “BODIPY-LDL uptake … 16.8 nM, replicate 1” value came out at 0.574; the “BODIPY-LDL uptake … 16.8 nM, replicate 2” value is 0.561. The “BODIPY-LDL uptake … 66.7 nM, replicate 1” value amounted to 0.706 and the “BODIPY-LDL uptake … 66.7 nM, replicate 2” value worked out at 0.752.

The next assay concerns the target T2, murine PCSK-9. Description: BLI (ForteBio), IgG on AHQ sensor, 100 nM antigen. On the technique in general: In BLI a coated tip is dipped into the sample, and binding shifts an interference pattern.
In turn, B1 gave a Kd of 0.544 nM. That is a sub-nanomolar value.
The same measure, in the same setting: under B2 stands 0.589 nM; under B3, 0.558 nM; under B4, 0.855 nM.

The next assay concerns the target T1, human PCSK9 (PCSK9 antigen, SEQ ID NO. …). Nature of the assay: BLI (ForteBio), IgG on AHQ sensor, 100 nM antigen.
In turn, B1 gave a Kd of 0.295 nM.
Molecule B2 came in with a Kd of 0.311 nM.
Still for that read-out and setting: then B3, with 0.296 nM; and B4, with 0.471 nM.

Another assay shares this target. Nature of the assay: MSD-SET, Fab with biotin-PCSK9 in solution, IgG on plate, pH 6.0.
For the molecule B5, binding was characterised by a dissociation constant (Kd) of 0.0059 nM.
On the same count and under the same terms, under B6 stands 0.65 nM; under B7, 1.9 nM.
Same read-out and setting: then B8, with 0.021 nM.
The same measure, in the same setting: then B9, with 0.013 nM.
As to B10, binding was characterised by a dissociation constant (Kd) of 0.0098 nM.
The same measure, in the same setting: under B11 stands 0.01 nM.

The target is the same in another assay. Nature of the assay: cell-based or functional assay. The source holds these as a separate data set.
As to B1, the “fluorescence of BODIPY-LDL in HepG2 cells against no anti-PCSK9 antibody” value (“fluorescence … against no anti-PCSK9 antibody” for short) was about 2 times.
Take B2: the “fluorescence … against no anti-PCSK9 antibody” value is about 2 times.
Same read-out and setting: under B3 stands about 2 times.
As to B4, the “fluorescence … against no anti-PCSK9 antibody” value was about 2 times.
